Data from patent US20110286916A1 (published 2011).
Changes are numbered by the printed parent chain.

B1: N1wc104 (scFv, V domains shown)
VH: QVQLQESGPGLVKPSGTLSLTCAVSGVSLATNNWWLWVRQSPGKGLEWIGEIYHSGYTNYNPSLKSRVTISVDKSSNQLSLDLRSITAADTAVYYCARRYCDNGVCYPFDHWGQGTMVTVSS
VL: SYVLTQPPSVSEAPRQTVTISCSGNSFNIGRYPVNWYQQLPGKAPKLLIYYNNLRFSGVSDRFSGSKSGTSASLAIRDLLSEDEADYYCSTWDDTLKGWVFGGGTKLTVL
notes: phage scFv
B2: hN1S3-146 (scFv, V domains shown)
VH: EVQLVQSGPEVKKPGTSVKVSCKASGFTFTSSAVQWVRQARGQRLEWIGWIVVGSGNTNYAQKFQERVTITRDMSTSTAYMELSSLRSEDTAVYYCVADTVYWGKGTLVTVSS
VL: QAVLTQPSSVSEAPRQRVTISCSGSSSNIGKNAVNWYQQLPGKAPKLLIYYDDLMPSGVSDRFSGSKSGTSASLAISGLQSEDEADYFCAAWDDSLSGWVFGGGTKLTVL
notes: phage scFv
B3: N1wc112 (scFv, V domains shown)
VH: EVQLVESGGGLAQPGKSLRISCAASGFTFGDYAMTWVRQAPGKGLEWVSSISGSGSGTYYTDSVKGRFAISRDNSKNTLYPQMNSLAAEDTAIYFCAKDQTDVTIRDFDYWGRGTLVTVSS
VL: SYELTQPPSVSVAPGQTARISCGGDNLGRKSVHWYQQKPGQAPVLVIYEDSKRPSGIPERFSGSSSGTMATLTISGAQVEDEADYYCYSTDSSGNHRVFGGGTKVTVL
notes: phage scFv
B4: N1wc99 (scFv, V domains shown)
VH: QVQLVQSGAEVKKPGASVKVSCKASGYTFTSYGISWVRQAPGQGLEWMGWISAYNGNTNYAQKLQGRVTMTTDTSTSTAYMELRSLRSDDTAVYYCARLASRAFDIWGRGTLVTVSS
VL: QSVLTQPASVSGSPGQSITISCTGTSSDVGGYNYVSWYQQHPGKAPKLMIYEGSKRPSGVSNRFSGSKSGNTASLTISGLQAEDEADYYCSSYTTRSTRVFGGGTKLTVL
notes: phage scFv
B5: N1wc145 (scFv, V domains shown)
VH: B4 VH with Q1E, Q6E, S31T, A53T, N59K, L99D, S101R, R102K
VL: B4 VL with Q1H, S2V, V3I, A8R
notes: phage scFv
B6: N1wc106 (scFv, V domains shown)
VH: QVQLVQSGAEVKRPGASVNLSCKASGYSFSRYYIHWVRQAPGQGLELMGRINPGGGTTTYAQKFQGRVTLSRDTSTNTIFMELNGLTSEDTAMYYCARSNYDILAGYGPDAFDFWGRGTLVTVSS
VL: QAVLTQPSSVSGAPGQRVTISCTGSSSNIGADNDVHWYQKFPGTAPKLLIFSNNNRPSGVPDRFSGSKSGTSASLAITGLQADDEADYYCQSYDSGLTRELFGGGTKLTVL
notes: phage scFv
B7: N1wc142 (scFv, V domains shown)
VH: B6 VH with Q1E, R13K, L120M
VL: QSVLTQPPSVSGAPGQRVTISCIGSNSNIGAGHDVHWYQQFPGTAPKLLIYDNTNRPSGVPDRFSGSKSGTSVSLAITGLQAEDEADYYCQSYDSSLGEVFGGGTKLTVL
notes: phage scFv
B8: N1wc158 (scFv, V domains shown)
VH: EVQLVQSGAEVKKPGASVKVSCKASGYNFTGYYMHWVRQAPGQGLEWMGWINPNSGGTNYAQKFQGRVTMTRDTSISTAYMELSRLRSDDTAVYYCATDSFDYWGRGTLVTVSS
VL: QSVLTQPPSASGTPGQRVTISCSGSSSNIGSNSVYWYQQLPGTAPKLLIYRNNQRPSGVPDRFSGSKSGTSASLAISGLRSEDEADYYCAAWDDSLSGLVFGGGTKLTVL
notes: phage scFv
B9: N1wc103 (scFv, V domains shown)
VH: B8 VH with E1Q, V5Q, M81V
VL: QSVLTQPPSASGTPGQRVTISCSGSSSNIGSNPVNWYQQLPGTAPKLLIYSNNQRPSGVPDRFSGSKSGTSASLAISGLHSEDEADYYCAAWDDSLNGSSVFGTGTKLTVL
notes: phage scFv
B10: N1wc110 (scFv, V domains shown)
VH: B8 VH with R106Q, L109M
VL: QSVVTQPPSASGSPGQRVTIACSGSSSNIGSNTVNWYQHVPGTAPKLLIYNNNQRPSGVQDRFSGSKSDTSASLAISGLQAEDEAVYYCATWDDSLIGLAFGGGTKLTVL
notes: phage scFv
B11: hN1S3-126 (scFv, V domains shown)
VH: B8 VH with R106Q
VL: SYVLTQPPSASGAPGQRVTISCSGSISNIGDNTVNWYQHLPRTAPKLVIYSDVQRPSGVPERFSGSKSGTSASLVISGLQAEDEADYYCASWDDSLDGVFFGGGTKLTVL
notes: phage scFv
B12: hN1S3-050 (scFv, V domains shown)
VH: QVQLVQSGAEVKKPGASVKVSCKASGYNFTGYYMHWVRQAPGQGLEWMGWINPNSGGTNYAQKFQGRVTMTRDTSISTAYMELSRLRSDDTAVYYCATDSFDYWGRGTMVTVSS
VL: LPVLTQPPSASGTPGQRVTISCSGRSSNIGSNFVYWYQQLPGTAPKLLIYRNNQRPSGVPDRFSGSKSGTSASLAISGLRSEDEADYYCATWDDNLSGVVFGGGTKLTVL
notes: phage scFv
B13: hN1S3-113 (scFv, V domains shown)
VH: B8 VH
VL: SYVLTQPPSASGTPGQRVTISCSGSSPNIGSNTVNWYQQLPGTAPKLLIYTNNQRPSGVPDRFSGSKSATSASLAISGLQFDDEADYFCAAWDDSLLGVVFGGGTKVTVL
notes: phage scFv
B14: hN1S3-010 (scFv, V domains shown)
VH: B8 VH with T69I, R87T, L109M
VL: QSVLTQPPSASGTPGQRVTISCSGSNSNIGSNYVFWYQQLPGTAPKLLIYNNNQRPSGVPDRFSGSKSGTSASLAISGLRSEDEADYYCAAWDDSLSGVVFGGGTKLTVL
notes: phage scFv
B15: hN1S3-174 (scFv, V domains shown)
VH: B8 VH with R106Q, L109T
VL: QSVLTQPPSVSGAPGQRITISCTGSSSNIGAGYDVHWYQQLPGTAPKLLIYGNSYRPSGVPDRFSGSKSGTSASLAITGLQAEDEADYYCQSYDSSLTGSIFGGGTKLTVL
notes: phage scFv
B16: hN1S3-052 (scFv, V domains shown)
VH: QVQLVQSGAEVKKPGASVRISCKTSGFTFTSYFIHWVRQAPGQRPEWMGVINPSRGNADYAPRFRGRVTMTRDKSTHTVYMDLKSLRSDDAAIYYCARDRLGGLLDYYDSSDSSKNFDAFDFWGQGTLVTVSS
VL: QAVLTQPSLASGTPGQRVTISCSGGSSNIGRHTVNWYQQLPGAAPKLLMHSSDQRPSGVPDRFSGSKSGTSASLAISGLQSEDEADYYCAAWDASLKNWVFGGGTKLTVL
notes: phage scFv
B17: hN1S3-073 (scFv, V domains shown)
VH: B16 VH
VL: DIQMTQSPSSLSAFVGDRVTITCRASQGINNYLAWFQQKPGKAPKSLIYAASTLRSGVPPRFSGSGSGTDFTLTISSLQPEDFATYYCQQYDSYPHTFGQGTRLEIK
notes: phage scFv
B18: hN1S3-067 (scFv, V domains shown)
VH: B16 VH with Q1E
VL: NFMLTQPHSVSESPGKTVIISCTRSSGSIASNYVQWLQQRPGSSPTTVIYDDNRRPSGVPDRFSGSIDGSSNSASLTISGLKTEDEADYYCQSYDRFDHVVFGGGTKLTVL
notes: phage scFv
B19: N1wc152 (scFv, V domains shown)
VH: QVQLVQSGGGLVQPGGSLRLSCGASGFTFSSHWMSWVRRPPGRGLEWVANINEGGSAEYYADSLKGRFTISRDNAKNSLFLQMDSLRAEDTAVYYCVRDQFHSNYDWGQGTMVTVSS
VL: QAVLTQPSSVSGAPGQRVTISCTGSSSNIGAPFDVHWYQQLPGTAPKLLIYGNSNRPSGVPDRFSGSKFGTSASLAITGLQAADEADYYCQSYDSSLSGWVFGGGTKLTVL
notes: phage scFv
B20: N1wc140 (scFv, V domains shown)
VH: QVQLQQSGAEVKKPGSSVKVSCRASGGTFSNYAISWVRQAPGQGLEWMGRIIPIFGGAHYAQKLQGRVSITADESTSTAHMELSSLRSEDAAVYYCASGAYYDVMGNYPYSGMDVWGRGTLVTVSS
VL: SYVLTQPPSVSVSPGQTAKITCGGDKIETKSVHWYQQKPGQAPVLVIYEDTKRPSGISERLSGSSAGTVATLTITGAQVDDEADYFCYSTDATGTERVFGGGTKLTVL
notes: phage scFv
B21: N1wc137 (scFv, V domains shown)
VH: QVQLVQSGAEVKKPGASVKVSCKASGYTFTNYGLSWVRQAPGQGLEWMGWISGYNDNTSYAQKFQDRITMTTDTSTSTASMELRSLRSDDTAVYYCAFSYYDSSGYFNWGQGTMVTVSS
VL: QAVLTQPSSVSGAPGQRVTVSCTGSSSNIGTGYAVHWYQQLPGTAPRLLIFGNNNRPSGVPDRFSGSKSGTSASLVITGLQAEDEADYYCQSFDTLSGSRVFGGGTKVTVL
notes: phage scFv
B22: N1wc157 (scFv, V domains shown)
VH: QVQLVQSGAGLKRPGTSVKISCKTSGYIFSQYPMHWVRQAPGQGLEWVAWVDTGNGTTRYSPNFQGRATVSGDTSANTGYLELRSLRFTDTAVYYCATNAFDYWGRGTLVTVSS
VL: SYELTQPPSVSVSPGQTARITCSGDALPDKYVHWYQQKSGQAPVLVLFDDSKRPSGIPERFSGSSSGTVATLIISGAQVEDEGDFFCYSTDSSGNERVFGGGTKLTVL
notes: phage scFv
B23: N1wc33 (scFv, V domains shown)
VH: EVQLVESGGDLVQPGGSLRLSCAASGFTFSDSWMHWVRQVPGKGLEWVSHIGIDGITTNYADSVKGRFTISRDNAKNTLYLQMNNLRAEDTAVYYCARNVGWESRPWGQGTLVTVSS
VL: SYVLTQPPSASGAPGQRVTISCSGSDSNIGRNTVNWYQQQLPGTAPTLLIYTNNQRPSGVPDRFSGSKSGTSASLAISGLQSGDEADYYCAAWDDSLNAYFFGPGTKLTVL
notes: phage scFv
B24: N1wc48 (scFv, V domains shown)
VH: QVQLVQSGAEVKKPGATVKISCKVSGYTFTDYYIHWVQQAPGKGLEWMGLVDPEDGETIYAEKFQGRVTIIADTSTDTAYMELSSLRSEDTAVYYCATGPFRLDSWGQGTMVTVSS
VL: QSVLTQPPSVSGAPGQRVTISCTGSSSNIGAGYDVHWYQQLPGSAPKLLIYGNNNRPSGVPDRFSGSKSGTSASLAITGLQAEDEADYYCQSFDNRLSDFNVFGTGTKVTVL
notes: phage scFv

Target: T1, human full-length Notch1 with C-terminal FLAG tag, stably expressed on 293 FlpIn (TREx) cells (human, UniProt P46531 19-2555)
T1 construct: tetracycline/doxycycline-induced expression from pcDNA5/FRT/TO-HN1+FLAG; also called hN1; 293_N1
Assay: FACS, phage scFv

| Binder | binding result |
| --- | --- |
| B1 | binds |
| B2 | binds |
| B3 | binds |
| B4 | binds |
| B5 | binds |
| B6 | binds |
| B7 | binds |
| B8 | binds |
| B9 | binds |
| B10 | binds |
| B11 | binds |
| B12 | binds |
| B13 | binds |
| B14 | binds |
| B15 | binds |
| B16 | binds |
| B17 | binds |
| B18 | binds |
| B19 | binds |
| B20 | binds |
| B21 | binds |
| B22 | binds |
| B23 | binds |
| B24 | binds |
